# B1: DNAJA2 (wild-type, class A J-domain protein) (natural protein)
# chain: not shown
# modifications: Alexa Fluor-488 label in the fluorescence anisotropy assays (site not stated)
# Molecular target: the molecule itself
# Test: SEC
protein,measurement,value
B1,stoichiometry N,2
